{"source": "paper PMC2840190", "key": {"[1]": {"molecular_target": "gp120-A prebound to sCD4 (HIV-1 (A subtype, isolate 92UG031) | human)", "assay": "ITC"}, "[2]": {"molecular_target": "gp120-B prebound to sCD4 (HIV-1 (B subtype, isolate YU2) | human) (UniProt P35961)", "sequence (P35961 whole entry, looked up)": "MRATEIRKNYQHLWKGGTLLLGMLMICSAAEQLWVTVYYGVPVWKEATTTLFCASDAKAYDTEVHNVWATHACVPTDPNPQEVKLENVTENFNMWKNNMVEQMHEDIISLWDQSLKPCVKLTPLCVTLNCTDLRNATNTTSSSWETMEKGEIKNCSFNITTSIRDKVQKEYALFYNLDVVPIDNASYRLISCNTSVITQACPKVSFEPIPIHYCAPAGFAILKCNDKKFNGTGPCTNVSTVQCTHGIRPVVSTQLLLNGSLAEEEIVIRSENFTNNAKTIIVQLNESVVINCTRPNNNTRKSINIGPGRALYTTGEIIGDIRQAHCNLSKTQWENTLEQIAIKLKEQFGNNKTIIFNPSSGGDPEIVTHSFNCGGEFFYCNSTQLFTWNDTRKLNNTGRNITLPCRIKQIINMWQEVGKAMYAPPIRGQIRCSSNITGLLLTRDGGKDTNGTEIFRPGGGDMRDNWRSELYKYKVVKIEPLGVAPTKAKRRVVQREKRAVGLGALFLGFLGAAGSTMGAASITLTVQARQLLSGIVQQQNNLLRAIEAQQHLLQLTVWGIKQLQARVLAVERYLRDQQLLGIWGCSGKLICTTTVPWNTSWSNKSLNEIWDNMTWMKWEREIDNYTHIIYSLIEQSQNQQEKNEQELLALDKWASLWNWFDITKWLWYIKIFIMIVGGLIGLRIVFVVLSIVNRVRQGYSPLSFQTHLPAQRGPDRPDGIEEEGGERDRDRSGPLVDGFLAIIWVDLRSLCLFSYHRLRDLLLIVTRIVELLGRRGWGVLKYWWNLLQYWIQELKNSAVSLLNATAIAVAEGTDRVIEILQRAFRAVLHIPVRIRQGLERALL", "assay": "ITC"}}}
{"substance": "Monoclonal antibody 17b", "values": [{"measurement": "Kd", "setting": "[1]", "result": 0.012, "unit": "µM"}, {"measurement": "dH", "setting": "[2]", "result": -11.1, "unit": "kcal/mol"}]}
